From the Human Domainome abundance scans (Beltran et al. 2025) come the findings set out here.

Sequences and labels used below:
B1: Ras GTPase-activating protein 1, residues 281 to 341; numbered along this chain, P20936 (parent)
chain: RRRVRAILPYTKVPDTDEISFLKGDMFIVHNELEDGWMWVTNLRTDEQGLIVEDLVEEVGR

± gives the uncertainty stated by the source.

The variants in the data set derive from B1. The data set is described as follows: abundance fitness (aPCA) (normalised: wild type 0, dead -1); higher = more abundant; growth selection in yeast, the domain comes from the species named. Particulars: Homo sapiens.
Consider RRRVRAILPYTKVPDTDEISFLKGDMFIVHNELEDGWMWVTNLRTDEQGLIVEELVEEVGR, for which the abundance fitness was -0.069 ± 0.087. Then RRRVRAILPYTKVPDTDEISFLKGDMFIVHNELEDGWMWVTNLRTDEQGLIMEDLVEEVGR, with 0.031 ± 0.072.

On to RRRVRAILPYTKVPDTDEISFLKGDMFIVHNELEDGWMWVTNLRTDEQGLITEDLVEEVGR, for which the abundance fitness came out at 0.023 ± 0.03.

On to RRRVRAILPYTKVPDTDEISFLKGDMFIVHNELEDGWMWVTNLRTDEQGLILEDLVEEVGR, for which the abundance fitness amounted to 0.041 ± 0.027. Then RRRVRAILPYTKVPDTDEISFLKGDMFIVHNELEDGWWWVTNLRTDEQGLIVEDLVEEVGR, with -0.438 ± 0.065; and RRRVRAILPYTKVPDTDEISFLKGDMTIVHNELEDGWMWVTNLRTDEQGLIVEDLVEEVGR, with -0.914 ± 0.069. For RRRVRAILPYTKVPDTDYISFLKGDMFIVHNELEDGWMWVTNLRTDEQGLIVEDLVEEVGR the value was -0.513 ± 0.037. Regarding RRRVRAILPYTKVPDTDCISFLKGDMFIVHNELEDGWMWVTNLRTDEQGLIVEDLVEEVGR, the abundance fitness is -0.341 ± 0.03. With RRRVRAILPYTKVPDTDEISFLKGDMFLVHNELEDGWMWVTNLRTDEQGLIVEDLVEEVGR, the abundance fitness was -0.038 ± 0.022.

For the variant RRRVRAILPYTKVPDTDEISFLKGDMFIVHNELEDGWMWVTNLRTDEQGLIVEDLVEEVGY, the abundance fitness is -0.076 ± 0.031. For RRRVRAILPYTKVPDTDEISFLKGDMFIVHNELEDGWMWVTNLRTDEQGLIVEDLVEEVGG the value was 0.034 ± 0.048.

Take RRRVRAILPYTKVRDTDEISFLKGDMFIVHNELEDGWMWVTNLRTDEQGLIVEDLVEEVGR: the abundance fitness is -0.132 ± 0.03. Then RRRVRAILPYTKVDDTDEISFLKGDMFIVHNELEDGWMWVTNLRTDEQGLIVEDLVEEVGR, with -0.023 ± 0.028; and RRRVRAILPYTKVPDTDEISFLKGDMFIVHNELEDGWMWVTNLRTDEQGLIVWDLVEEVGR, with -0.203 ± 0.055; and RKRVRAILPYTKVPDTDEISFLKGDMFIVHNELEDGWMWVTNLRTDEQGLIVEDLVEEVGR, with 0.027 ± 0.08. Then RNRVRAILPYTKVPDTDEISFLKGDMFIVHNELEDGWMWVTNLRTDEQGLIVEDLVEEVGR, with -0.099 ± 0.028; and RRRVRDILPYTKVPDTDEISFLKGDMFIVHNELEDGWMWVTNLRTDEQGLIVEDLVEEVGR, with -0.953 ± 0.035; and RRRVRTILPYTKVPDTDEISFLKGDMFIVHNELEDGWMWVTNLRTDEQGLIVEDLVEEVGR, with -0.84 ± 0.034. For RRRVRAILPYTKVPDTDEISFLKGDMFIVHNELEDGWMWVTNLRTDEQGLGVEDLVEEVGR the value was -0.761 ± 0.039; for RRRVRAILPYTKVPDTDEISFLKGDMFIVHNELEDGWMWVTNLRTDEQGLFVEDLVEEVGR, -0.826 ± 0.045; for RRRVRAILPYTKVPDTDEISFLKGDMFIVHNELEDGWMWVTNLRTDEQGLPVEDLVEEVGR, -0.912 ± 0.087. In the case of RRRVRAILPYTKVPDTDEISFLKGDMFIVHNELEDGWMWVTNLRTDEQGLIVEDLVTEVGR, the abundance fitness was -0.117 ± 0.042.

In the case of RRRVRAELPYTKVPDTDEISFLKGDMFIVHNELEDGWMWVTNLRTDEQGLIVEDLVEEVGR, the abundance fitness is -0.551 ± 0.1.

RRRVRACLPYTKVPDTDEISFLKGDMFIVHNELEDGWMWVTNLRTDEQGLIVEDLVEEVGR: the abundance fitness is -0.231 ± 0.029.

Consider RRRVRADLPYTKVPDTDEISFLKGDMFIVHNELEDGWMWVTNLRTDEQGLIVEDLVEEVGR, for which the abundance fitness is -1.01 ± 0.08. With RRRVRAILPYTKVPDTDEISFLKGDMFIVHNELEDGWMWVTNLRTDQQGLIVEDLVEEVGR, the abundance fitness was -0.135 ± 0.075. In the case of RRRVRAILPYTKVPDTDEISYLKGDMFIVHNELEDGWMWVTNLRTDEQGLIVEDLVEEVGR, the abundance fitness was -0.091 ± 0.021. For RRRVRAILPYTKVPDTDEISQLKGDMFIVHNELEDGWMWVTNLRTDEQGLIVEDLVEEVGR the value was -0.74 ± 0.068; for RRRVRAILPYTKVPDTDEISFLKGDMFIVHNELEDGWMWVTNRRTDEQGLIVEDLVEEVGR, -0.437 ± 0.034; for RRRVRAILPYTKVPDTDEISFLKGDMFIVHNELEDGWMWVTNVRTDEQGLIVEDLVEEVGR, -0.044 ± 0.029. For RRRVRAILPYTKVPDTDEISFLKGDMFIVHNELEDGWMWVTNERTDEQGLIVEDLVEEVGR the value was -0.026 ± 0.1; for RRRVRAILPYTKVPDTDEISFLKGDMFIVHNELWDGWMWVTNLRTDEQGLIVEDLVEEVGR, -0.28 ± 0.066; for RRRVRAILPYTKVPDTDEISFLKGDMFIVHNELEDGWMWVTNLRTWEQGLIVEDLVEEVGR, 0.029 ± 0.053.

In the case of RRRVRAILPYTKVPDTDEISFLKGDMFIVHNELEDGWMWVTNLRTAEQGLIVEDLVEEVGR, the abundance fitness was 0.05 ± 0.027. Then RRRVRAILPYTKVPDSDEISFLKGDMFIVHNELEDGWMWVTNLRTDEQGLIVEDLVEEVGR, with -0.031 ± 0.024; and RRRVRAILPYTKVPDGDEISFLKGDMFIVHNELEDGWMWVTNLRTDEQGLIVEDLVEEVGR, with -0.439 ± 0.027; and RRRVRAILPYTKVPDTDEISFLKGDMFIVHNELEDGWMWVINLRTDEQGLIVEDLVEEVGR, with -0.594 ± 0.038. For RRFVRAILPYTKVPDTDEISFLKGDMFIVHNELEDGWMWVTNLRTDEQGLIVEDLVEEVGR the value was 0.004 ± 0.032; for RRKVRAILPYTKVPDTDEISFLKGDMFIVHNELEDGWMWVTNLRTDEQGLIVEDLVEEVGR, -0.01 ± 0.064.

For RRRVRAILPYTKMPDTDEISFLKGDMFIVHNELEDGWMWVTNLRTDEQGLIVEDLVEEVGR, the abundance fitness is -0.013 ± 0.073. Then RRRVRAILPYTKVPDTDEISFLKGEMFIVHNELEDGWMWVTNLRTDEQGLIVEDLVEEVGR, with -0.712 ± 0.094; and RRRVRAILPYTKVPDTDEISFLKGDMFIVHNEEEDGWMWVTNLRTDEQGLIVEDLVEEVGR, with -0.153 ± 0.065. Then RRRKRAILPYTKVPDTDEISFLKGDMFIVHNELEDGWMWVTNLRTDEQGLIVEDLVEEVGR, with -0.626 ± 0.043.
